The values below come from patent US20140170142A1 (AstraZeneca / MedImmune, published 2014).

Substitutions are numbered along the chain they refer to. Names may count otherwise.

Experiment [1] concerns the target T1, mouse serum albumin (mouse, UniProt P07724 25-608).
T1 construct: also called MSA; mouse albumin
Nature of the experiment: SPR (BIAcore 3000), CM5 chip, PBS pH 7.5. The source says:
(§1) The interaction between different ABD-Fc variants and MSA (mouse serum albumin), HSA (human serum albumin) and mFcRn were monitored by surface plasmon resonance detection using BIAcore 3000 instrument. (GE Healthcare). First, ABD-Fc variants were coupled to dextran matrix of CM5 sensor chip using an Amine Coupling Kit at a surface density of 1000-2000 RU according to manufacturer's instructions. Human and mouse albumin as well mouse FcRn were flown over in a test-bind experiments at the concentrations ranging from 0.1-10 μM at a flow rate of 5 μl/min. Dilution and binding experiments were carried out in PBS pH7.5; 150 mM NaCl; 0.005% Tween for albumin binding and 50 mM NaPhosphate pH6.0; 150 mM NaCl; 0.005% Tween for mouse FcRn. Subsequently, the format of the Biacore experiments were flipped where mouse and human albumin as well as mouse FcRn were coupled to a CM5 chip using Amine Coupling Kit at surface densities ranging from 500-1500 RU. The ABD-Fc variants were flown over at three different concentrations 0.5; 1 and 10 μM. The latter format was more successful due to higher signal and self-consistency.
(In general: In SPR one partner is held on a chip, and binding of the other changes the refractive index at the surface.)

In experiment [2] the target is T2, human serum albumin (human, UniProt P02768 25-609).
T2 construct: also called HSA; human albumin
T2 sequence (P02768 25-609 limits assumed): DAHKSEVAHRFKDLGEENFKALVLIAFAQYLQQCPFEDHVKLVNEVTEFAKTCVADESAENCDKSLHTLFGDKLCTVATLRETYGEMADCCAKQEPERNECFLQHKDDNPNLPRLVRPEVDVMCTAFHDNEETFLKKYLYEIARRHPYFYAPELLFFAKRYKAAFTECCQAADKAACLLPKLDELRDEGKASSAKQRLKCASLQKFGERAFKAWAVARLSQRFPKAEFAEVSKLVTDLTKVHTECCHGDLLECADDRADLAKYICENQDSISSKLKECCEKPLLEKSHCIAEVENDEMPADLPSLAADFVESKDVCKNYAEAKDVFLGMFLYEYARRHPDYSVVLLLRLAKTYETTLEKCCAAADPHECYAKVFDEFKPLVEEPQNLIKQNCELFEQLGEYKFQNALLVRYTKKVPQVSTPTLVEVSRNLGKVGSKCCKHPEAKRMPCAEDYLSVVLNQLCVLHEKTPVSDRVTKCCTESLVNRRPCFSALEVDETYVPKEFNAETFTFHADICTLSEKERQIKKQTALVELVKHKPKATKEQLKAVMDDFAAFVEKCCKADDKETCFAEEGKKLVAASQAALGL
Nature of the experiment: SPR (BIAcore 3000), CM5 chip, PBS pH 7.5.
Description: as §1

The target in experiment [3] is T3, mouse FcRn (mouse, UniProt Q61559 22-297; P01887 21-119, limits assumed).
T3 construct: also called mFcRn
T3 sequence (looked up): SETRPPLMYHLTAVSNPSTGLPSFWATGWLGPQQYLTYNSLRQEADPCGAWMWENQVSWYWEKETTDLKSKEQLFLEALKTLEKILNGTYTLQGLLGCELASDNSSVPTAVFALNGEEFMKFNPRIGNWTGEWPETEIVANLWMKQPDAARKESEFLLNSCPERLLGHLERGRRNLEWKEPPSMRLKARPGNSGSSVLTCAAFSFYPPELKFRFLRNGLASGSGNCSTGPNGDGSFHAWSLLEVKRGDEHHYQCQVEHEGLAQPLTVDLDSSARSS
T3 sequence (b2m, looked up): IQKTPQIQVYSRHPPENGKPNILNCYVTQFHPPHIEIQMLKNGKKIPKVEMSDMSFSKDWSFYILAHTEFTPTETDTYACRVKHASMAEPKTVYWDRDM
Nature of the experiment: SPR (BIAcore 3000), CM5 chip, pH 6.0, three concentrations of injectant.
Description: as §1

Experiment [4] concerns the target T2, human serum albumin. Nature of the experiment: SPR (BIAcore 3000), CM5 chip, three concentrations of injectant.
Description: as §1

Experiment [5] concerns the target T1, mouse serum albumin. Described as above.
Description: as §1

B1: ABD-Fc: fusion of unmodified ABD and unmodified Fc (Fc fusion)
chain: LAEAKVLANRELDKYGVSDYYKNLINNAKTVEGVKALIDEILAALPGAEPRGPTIKPCPPCKCPAPNLLGGPSVFIFPPKIKDVLMISLSPIVTCVVVDVSEDDPDVQISWFVNNVEVHTAQTQTHREDYNSTLRVVSALPIQHQDWMSGKEFKCKVNNKDLPAPIERTISKPKGSVRAPQVYVLPPPEEEMTKKQVTLTCMVTDFMPEDIYVEWTNNGKTELNYKNTEPVLDSDGSYFMYSKLRVEKKNWVERNSYSCSVVHEGLHNHHTTKSFSRTPGKGGGGSEQKLISEEDLGGGGSHHHHHH
notes: also called wild type ABD-Fc; ABD-Fc parental construct
For the molecule B1, the binding result in experiment [1] is recorded as “binds”.

B2: ABD-Fc (His 310): knockout substitution in Fc region of Igg2A H310A (Fc fusion)
chain: B1 chain with H144A
notes: also called ABD-(His310TM)-Fc
With B2, the binding result in experiment [2] is “binds”; in experiment [1], “binds”; in experiment [3], “no binding (tested: 10 µM)”.

B3: ABD-TM-Fc: triple knockout mutations of ABD residues S18A; T20A and Y21A (Fc fusion)
chain: B1 chain with S18A, Y20A, K22A
notes: T20A/Y20A; Y21A)
B3: the binding result in experiment [4] and in experiment [5] was “no binding (tested: 10 µM)” each time.
